Measurements from patent US6500417 (DSM N V, dated 2002).
Changes are numbered by the printed parent chain.

B1: reference IL-3 preparation (B. licheniformis, full-length IL-3 cDNA in pGB/IL-322) (ligand)
chain: APMTQTTPLKTSWVNCSNMIDEIITHLKQPPLPLLDFNNLNGEDQDILMENNLRRPNLEAFNRAVKSLQNASAIESILKNLLPCLPLATAAPTRHPIHIKDGDWNEFRRKLTFYLKTLENAQAQQTTLSLAIF
modifications: radiolabeled with the Bolton-Hunter reagent when used as tracer
B2: hIL-3 substitution mutant 904 (Cys16→Ala16) (ligand)
chain: B1 chain with C16A
notes: also called 16C → A; not shown: heterologous N-terminal leader of the E. coli fusion (pGB/IL-336: 12 aa; pGB/IL-339: 15 aa)
B3: hIL-3 substitution mutant 905 (Cys84→Ala84) (ligand)
chain: B1 chain with C84A
notes: also called 84C → A; not shown: heterologous N-terminal leader of the E. coli fusion (pGB/IL-336: 12 aa; pGB/IL-339: 15 aa)
B4: hIL-3 substitution mutant 1483 (Glu50→Lys50) (ligand)
chain: B1 chain with E50K
notes: also called 50E → K; not shown: heterologous N-terminal leader of the E. coli fusion (pGB/IL-336: 12 aa; pGB/IL-339: 15 aa)
B5: hIL-3 substitution mutant 1492 (Arg108Arg109Lys110→Glu108Asp109Glu110) (ligand)
chain: B1 chain with R108E, R109D, K110E
notes: also called 108RRK → EDE; not shown: heterologous N-terminal leader of the E. coli fusion (pGB/IL-336: 12 aa; pGB/IL-339: 15 aa)
B6: hIL-3 double cysteine mutant 9045 (Cys16Cys84→Ala16Ala84) (ligand)
chain: B1 chain with C16A, C84A
notes: also called 16/84C → A; not shown: heterologous N-terminal leader of the E. coli fusion (pGB/IL-336: 12 aa; pGB/IL-339: 15 aa)
B7: hIL-3 substitution mutant 1488 (Lys79→Glu79) (ligand)
chain: B1 chain with K79E
notes: also called 79K → E; not shown: heterologous N-terminal leader of the E. coli fusion (pGB/IL-336: 12 aa; pGB/IL-339: 15 aa)
B8: hIL-3 substitution mutant 1486 (Arg63Ala64→Pro63Gly64) (ligand)
chain: B1 chain with R63P, A64G
notes: also called 63RA → PG; not shown: heterologous N-terminal leader of the E. coli fusion (pGB/IL-336: 12 aa; pGB/IL-339: 15 aa)
B9: hIL-3 substitution mutant 1484 (Arg54Arg55→Glu54Asp55) (ligand)
chain: B1 chain with R54E, R55D
notes: also called 54RR → ED; not shown: heterologous N-terminal leader of the E. coli fusion (pGB/IL-336: 12 aa; pGB/IL-339: 15 aa)
B10: hIL-3 combination deletion mutant X (deletions 1-14/120-133) (ligand)
chain: NCSNMIDEIITHLKQPPLPLLDFNNLNGEDQDILMENNLRRPNLEAFNRAVKSLQNASAIESILKNLLPCLPLATAAPTRHPIHIKDGDWNEFRRKLTFYLKTLE
notes: expressed in Bacillus, lacks a leader
B11: hIL-3 combination deletion mutant Z (deletions 1-14/116-133) (ligand)
chain: NCSNMIDEIITHLKQPPLPLLDFNNLNGEDQDILMENNLRRPNLEAFNRAVKSLQNASAIESILKNLLPCLPLATAAPTRHPIHIKDGDWNEFRRKLTFYL
notes: as for B10
B12: pGB/IL-336 IL-3 fusion protein (ligand)
chain: MTMITNSRGSVDAPMTQTTPLKTSWVNCSNMIDEIITHLKQPPLPLLDFNNLNGEDQDILMENNLRRPNLEAFNRAVKSLQNASAIESILKNLLPCLPLATAAPTRHPIHIKDGDWNEFRRKLTFYLKTLENAQAQQTTLSLAIF
B13: hIL-3 deletion mutant 822 (deletion 107-119) (ligand)
chain: APMTQTTPLKTSWVNCSNMIDEIITHLKQPPLPLLDFNNLNGEDQDILMENNLRRPNLEAFNRAVKSLQNASAIESILKNLLPCLPLATAAPTRHPIHIKDGDWNENAQAQQTTLSLAIF
notes: not shown: heterologous N-terminal leader of the E. coli fusion (pGB/IL-336: 12 aa; pGB/IL-339: 15 aa)

molecular target: T1, IL-3 receptor (human, UniProt P26951 19-378; P32927 17-897); assay: cell-based or functional assay
T1 sequence (P26951 19-378, chain 1 of 2): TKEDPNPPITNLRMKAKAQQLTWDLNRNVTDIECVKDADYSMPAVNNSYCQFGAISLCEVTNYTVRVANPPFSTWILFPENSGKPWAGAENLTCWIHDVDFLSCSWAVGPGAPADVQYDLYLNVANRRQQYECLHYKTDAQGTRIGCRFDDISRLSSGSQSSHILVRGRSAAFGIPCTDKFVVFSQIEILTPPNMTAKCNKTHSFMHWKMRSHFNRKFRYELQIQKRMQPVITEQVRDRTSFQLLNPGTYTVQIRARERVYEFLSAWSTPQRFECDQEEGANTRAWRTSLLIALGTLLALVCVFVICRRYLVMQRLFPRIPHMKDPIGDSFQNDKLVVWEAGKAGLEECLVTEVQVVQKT
T1 sequence (P32927 17-897, chain 2 of 2): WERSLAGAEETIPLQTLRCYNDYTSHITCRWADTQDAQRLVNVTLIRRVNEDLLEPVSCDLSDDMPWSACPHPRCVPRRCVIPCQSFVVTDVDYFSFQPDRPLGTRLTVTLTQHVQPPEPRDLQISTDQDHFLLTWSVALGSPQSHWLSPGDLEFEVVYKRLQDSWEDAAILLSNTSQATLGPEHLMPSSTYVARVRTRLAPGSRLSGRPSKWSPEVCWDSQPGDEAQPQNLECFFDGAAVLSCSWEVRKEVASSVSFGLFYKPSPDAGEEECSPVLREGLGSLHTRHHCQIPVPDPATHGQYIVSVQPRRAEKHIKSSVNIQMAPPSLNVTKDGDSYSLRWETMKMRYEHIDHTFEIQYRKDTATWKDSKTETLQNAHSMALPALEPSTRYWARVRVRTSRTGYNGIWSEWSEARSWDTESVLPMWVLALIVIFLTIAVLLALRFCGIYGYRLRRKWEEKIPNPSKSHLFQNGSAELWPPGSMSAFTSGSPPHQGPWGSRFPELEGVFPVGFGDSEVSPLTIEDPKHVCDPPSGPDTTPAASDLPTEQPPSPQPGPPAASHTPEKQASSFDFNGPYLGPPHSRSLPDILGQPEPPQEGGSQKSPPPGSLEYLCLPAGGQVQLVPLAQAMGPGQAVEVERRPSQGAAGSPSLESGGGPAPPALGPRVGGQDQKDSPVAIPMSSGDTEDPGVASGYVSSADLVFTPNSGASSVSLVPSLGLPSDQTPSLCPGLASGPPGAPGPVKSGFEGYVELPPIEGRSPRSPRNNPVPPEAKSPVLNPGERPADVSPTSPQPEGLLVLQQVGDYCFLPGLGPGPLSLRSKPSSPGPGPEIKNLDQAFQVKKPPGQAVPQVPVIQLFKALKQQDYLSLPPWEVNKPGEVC

First: B1
Second: B2
The “REL. SPEC. BIOLOGICAL ACTIVITY (DNA synthesis of AML193 cells)” value (“REL. SPEC. BIOLOGICAL ACTIVITY” below) of the first is higher: 1 relative to reference IL-3 for the first, 0.00024 relative to reference IL-3 for the second.

First: B3
Second: B4
The “REL. SPEC. BIOLOGICAL ACTIVITY” value of the first is lower: 0.00019 relative to reference IL-3 for the first, 0.0027 relative to reference IL-3 for the second.

Compared with B5, B6 is higher in “REL. SPEC. BIOLOGICAL ACTIVITY” value: 3.1e-05 relative to reference IL-3 for the first, 0.00031 relative to reference IL-3 for the second.

First: B7
Second: B8
The “REL. SPEC. BIOLOGICAL ACTIVITY” value of the first is higher: 0.0019 relative to reference IL-3 for the first, 9.8e-05 relative to reference IL-3 for the second.

First: B9
Second: B10
The “REL. SPEC. BIOLOGICAL ACTIVITY” value of the first is lower: 8e-05 relative to reference IL-3 for the first, 0.23 relative to reference IL-3 for the second.

First: B11
Second: B12
The “REL. SPEC. BIOLOGICAL ACTIVITY” value of the first is lower: 0.11 relative to reference IL-3 for the first, 0.79 relative to reference IL-3 for the second.

B13 was tested, and the “REL. SPEC. BIOLOGICAL ACTIVITY” value was 0.00021 relative to reference IL-3.

molecular target: T1, IL-3 receptor; assay: competition with radiolabeled hIL-3 for binding to cells, relative to reference IL-3
Protocol: An ILK3 receptor binding assay was performed with purified recombinant hIL-3 (see EPA 0390252) was radiolabeled with the Bolton-Hunter reagent (as described by Budel et al., Blood 74 (1989) 565–571). The specific activity was estimated at 80,000 cpm/ng of IL-3. As target, either donor leukocytes, patient AML cells, or MV4-11 (ATCC: CRL-9591) cells were used. Cells were washed in Hanks Balanced Salt solution and suspended in Alpha-MEM plus 1% BSA. Usually, 3–10×10⁶ cells were incubated with 200–300 pM of radiolabeled IL-3 and various concentrations of unlabeled mutant protein in a total volume of 200 µl for 1 hr at 37° C. Cell-bound labeled IL-3 was centrifuged for 10 min at 1000×g at 4° C. through a 0.5 ml cushion of bovine calf serum in an Eppendorf tube (Budel et al., 1989). The tubes were frozen in liquid nitrogen and the tips cut off for counting in a Packard gamma counter. Competition binding was determined relative to the reference preparation. […] Radiolabeled IL-3 binding to patient AML blasts is competed with unlabeled IL-3 protein (reference preparation). Due to the low number of receptors (less than 200) on the target cells, data for competition mostly varied by one order of magnitude.

Going from B2 to B3, the “relative antagonistic potential (relative receptor binding activity / relative biological activity)” value falls from 100 to 11.

Compared with B4, B5 is lower in “relative antagonistic potential (relative receptor binding activity / relative biological activity)” value: 37 for the first, 2 for the second.

First: B6
Second: B7
The “relative antagonistic potential (relative receptor binding activity / relative biological activity)” value of the first is higher: 88 for the first, 65 for the second.

Compared with B8, B9 is lower in “relative antagonistic potential (relative receptor binding activity / relative biological activity)” value: 14 for the first, 3.5 for the second.

Compared with B10, B11 is lower in “relative antagonistic potential (relative receptor binding activity / relative biological activity)” value: 8.9 for the first, 1.6 for the second.

Going from B12 to B13, the “relative antagonistic potential (relative receptor binding activity / relative biological activity)” value rises from 1.1 to 1.9.
